This note sets out measurements from PMC9980635 (mAbs, 2023).

Experiment [1] concerns the target cynomolgus LAMP-1 extracellular domain (Macaca fascicularis, UniProt A0A2K5UUW0). The experiment is described as follows: BLI.
The target in experiment [2] is human LAMP-1 extracellular domain (Homo sapiens, UniProt P11279). In words: BLI.
The target of experiment [3] is murine LAMP-1 extracellular domain (Mus musculus, UniProt P11438). In words: BLI.
Experiment [4] concerns the target cynoLAMP1 presented on the surface of engineered cell lines (Macaca fascicularis, UniProt A0A2K5UUW0). In words: flow cytometry on cells.

Sequence of murine LAMP-1 extracellular domain (P11438 25-370): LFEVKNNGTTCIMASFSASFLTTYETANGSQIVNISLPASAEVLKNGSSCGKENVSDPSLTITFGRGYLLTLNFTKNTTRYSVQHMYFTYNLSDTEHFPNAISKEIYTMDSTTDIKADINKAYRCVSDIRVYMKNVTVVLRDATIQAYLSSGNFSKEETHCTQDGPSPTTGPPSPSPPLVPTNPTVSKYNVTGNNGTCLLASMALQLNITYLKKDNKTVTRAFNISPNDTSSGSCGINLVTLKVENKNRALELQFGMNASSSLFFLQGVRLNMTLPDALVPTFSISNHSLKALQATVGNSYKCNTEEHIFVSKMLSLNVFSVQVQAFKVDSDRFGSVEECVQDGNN
Sequence of human LAMP-1 extracellular domain (P11279 29-382): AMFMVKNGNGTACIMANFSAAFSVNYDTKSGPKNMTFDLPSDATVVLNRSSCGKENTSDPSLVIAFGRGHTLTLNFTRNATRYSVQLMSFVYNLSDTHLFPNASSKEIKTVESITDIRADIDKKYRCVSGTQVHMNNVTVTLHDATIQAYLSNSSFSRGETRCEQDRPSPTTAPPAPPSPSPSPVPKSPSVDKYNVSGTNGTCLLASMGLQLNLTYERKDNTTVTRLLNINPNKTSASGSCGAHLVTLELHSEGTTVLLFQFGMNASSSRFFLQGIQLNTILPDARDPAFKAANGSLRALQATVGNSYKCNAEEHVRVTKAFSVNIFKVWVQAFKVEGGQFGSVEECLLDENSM

B1: mAb B (antibody, V domains shown)
VH: QVQLVQSGAEVKKPGSSVKVSCKASGYIFTNYNIHWVKKSPGQGLEWIGAIYPGNGDAPYSQKFQGKATLTADTSTSTTYMELSSLRSEDTAVYYCVRANWDVAFAYWGQGTLVTVSS
VL: DIQMTQSPSSLSASVGDRVTITCKASQDIDRYMAWYQDKPGKAPRLLIHDTSTLQSGVPSRFSGSGSGRDYTLTISNLEPEDFATYYCLQYDNLWTFGGGTKVEIK
As for B1, the binding result is reported as “no binding (tested: 200 nM)” in experiment [1], “no binding (tested: 200 nM)” in experiment [3] and “no binding” in experiment [4]. In experiment [2], this molecule registered an equilibrium dissociation constant (Kd) of 12 nM.
